How the values were obtained:
bovine serum albumin [1] = target: T1, bovine serum albumin (bovine, UniProt P02769 25-607); assay: SPR (Biacore 3000), BSA immobilized on CM5; profiles did not fit a 1:1 model
T1 construct: also called BSA
Description: (§1) 1700 RUs of BSA (Sigma) were immobilized on research grade CM5-sensorchip (BIACORE). Ethanolamine blocked surface was used as a reference. Immobilizations were carried out at the protein concentrations of 50 μg/ml in 10 mM acetate pH4.5 using amine coupling kit supplied by the manufacturer. Antibodies were passed through Superdex 75 (GE Healthcare) column to separate monomer prior to BIACORE analysis.
(§2) In all instances, analyses were carried out at 25° C. in HBS-E buffer (10 mM HEPES, 150 mM NaCl and 3 mM EDTA, pH7.4) supplemented with 0.005% surfactant P20 at a flow rate of 20 ul/min. The surfaces were regenerated with 100 mM HCl (3 seconds). Data were analyzed with BIAevaluation 4.1 software.

bovine serum albumin [2] = target: T1, bovine serum albumin; assay: SPR (Biacore 3000), BSA immobilized on CM5; estimated, no 1:1 fit
Description: as §1, §2

bovine serum albumin [3] = target: T1, bovine serum albumin; assay: SPR (Biacore 3000), BSA immobilized on CM5, 1:1 model; SE 3.2 × 10^3 in r12c3
bovine serum albumin [4] = target: T1, bovine serum albumin; assay: SPR (Biacore 3000), BSA immobilized on CM5, extended dissociation
bovine serum albumin [5] = target: T1, bovine serum albumin; assay: SPR (Biacore 3000), BSA immobilized on CM5, 4 h dissociation time; SE 3 × 10^-8 in r12c4
bovine serum albumin [6] = target: T1, bovine serum albumin; assay: SPR (Biacore 3000), BSA immobilized on CM5, calculated from ka and kd
bovine serum albumin [7] = target: T1, bovine serum albumin; assay: SPR (Biacore 3000), BSA immobilized on CM5
bovine serum albumin [8] = target: T1, bovine serum albumin; assay: SPR (Biacore 3000), BSA immobilized on CM5, 1:1 model; SE 5.4 × 10^-3 in r14c4
Description: as §1, §2

bovine serum albumin [9] = target: T1, bovine serum albumin; assay: SPR (Biacore 3000), BSA immobilized on CM5, 1:1 model; SE 2.2 × 10^4 in r14c3
Description: as §1, §2

bovine serum albumin [10] = target: T1, bovine serum albumin; assay: SPR (Biacore 3000), BSA immobilized on CM5, 1:1 model; SE 1.1 × 10^-8 in r14c5
Description: as §1, §2

T1 sequence (P02769 25-607 limits assumed): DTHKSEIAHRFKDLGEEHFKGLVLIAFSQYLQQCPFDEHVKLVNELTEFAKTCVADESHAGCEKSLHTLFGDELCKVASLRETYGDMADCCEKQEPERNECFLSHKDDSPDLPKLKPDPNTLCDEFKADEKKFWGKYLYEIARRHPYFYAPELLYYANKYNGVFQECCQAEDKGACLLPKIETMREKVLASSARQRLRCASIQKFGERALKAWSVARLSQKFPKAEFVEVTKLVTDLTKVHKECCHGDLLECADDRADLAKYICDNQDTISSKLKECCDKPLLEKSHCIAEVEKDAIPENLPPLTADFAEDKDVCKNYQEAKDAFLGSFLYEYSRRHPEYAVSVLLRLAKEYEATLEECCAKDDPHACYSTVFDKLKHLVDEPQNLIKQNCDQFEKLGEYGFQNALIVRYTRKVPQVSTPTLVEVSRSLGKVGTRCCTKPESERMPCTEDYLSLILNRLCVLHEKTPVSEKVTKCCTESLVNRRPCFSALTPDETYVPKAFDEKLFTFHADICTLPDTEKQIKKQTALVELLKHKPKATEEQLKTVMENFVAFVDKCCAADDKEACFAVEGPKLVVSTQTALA

B1: sdAb BSA8 (VHH)
VHH: QVKLEESGGGLAQAGGSLRLSCAASERTFIRYTIGWFRQAPGKEREFVGRVNWSGGDTYYADSVKGRFTISRDNAKTTVTLQMSSLKPEDTAVYSCAASPKWSEIPREYIYWGPGTQVTVSS
For B1, the koff (bovine serum albumin [1]) was 0.005 s⁻¹ and the Kd (bovine serum albumin [2]) was ~100 nM.

B2: sdAb BSA12 (VHH, part only)
VHH: QVKLEESGGGLVQVGDSLRLSCAASGRTFSNYTMAWFRQFPGKEREFVAVVSRGGGATDYADSVKGRFTISRDNAKNTMYLQMNSLKTDTAVYYCAAGTDLSYYYSTKKWAYWGQGTQVTVSS
modifications: c-Myc and 6xHis tags
In the case of B2, the kon (bovine serum albumin [3]) is reported as 2.5e+06 M⁻¹ s⁻¹, the koff (bovine serum albumin [4]) is reported as 1e-05 s⁻¹ and the koff (bovine serum albumin [5]) is reported as 9e-06 s⁻¹. It also gave a Kd (bovine serum albumin [6]) of 0.004 nM and a binding capacity (RU) (bovine serum albumin [7]) of 150 RU.

B3: sdAb BSA16 (VHH)
VHH: QVKLEESGGGLVQAGGSLRLSCAPSGRTFRTWRMGWFRQAPGKEREFVAAINLNTGNTYYVDSVKGRFTISGDYAKNTLYLQMNSLKPEDTAVYFCAARSPDSDYVPLSSIDYQYWGQGTQVTVSS
In the case of B3, the koff (bovine serum albumin [8]) is reported as 0.27 s⁻¹, the kon (bovine serum albumin [9]) is reported as 1e+06 M⁻¹ s⁻¹ and the Kd (bovine serum albumin [10]) is reported as 280 nM.

From patent publication US20110318348A1 (NATIONAL RESEARCH COUNCIL OF CANADA, published 2011)
